Key:
Assay in all cases: Octet BLI; biotinylated huDLL3-IgG1 fusion on streptavidin tips; single 50 nM trispecific, conditioned medium
[1] = biological target: T1, anti-DLL3 trispecific protein with DLL3 binding domain 53A05
T1 construct: trispecific, one chain
Experimental: (§1) Using the conditioned medium with known concentrations of the anti-DLL3 trispecific proteins, the relative binding affinities of the anti-DLL3 trispecific proteins toward human DLL3 protein were measured using a method where biotinylated version of human DLL3 protein were expressed as a human IgG1 fusion protein, and the binding affinity measurement was carried out in an Octet instrument with streptavidin tips.

[2] = biological target: T2, anti-DLL3 trispecific protein with DLL3 binding domain 42C03
T2 construct: trispecific, one chain
Experimental: as §1

[3] = biological target: T3, anti-DLL3 trispecific protein with DLL3 binding domain 51A01
T3 construct: trispecific, one chain
Experimental: as §1

[4] = biological target: T4, anti-DLL3 trispecific protein with DLL3 binding domain 51H04
T4 construct: trispecific, one chain
Experimental: as §1

[5] = biological target: T5, anti-DLL3 trispecific protein with DLL3 binding domain 42D08
T5 construct: trispecific, one chain
Experimental: as §1

[6] = biological target: T6, anti-DLL3 trispecific protein with DLL3 binding domain 51G02
T6 construct: trispecific, one chain; also called 51G2
Experimental: as §1

[7] = biological target: T7, anti-DLL3 trispecific protein with DLL3 binding domain 42B10
T7 construct: trispecific, one chain
Experimental: as §1

[8] = biological target: T8, anti-DLL3 trispecific protein with DLL3 binding domain 42D06
T8 construct: trispecific, one chain
Experimental: as §1

[9] = biological target: T9, anti-DLL3 trispecific protein with DLL3 binding domain 53C04
T9 construct: trispecific, one chain
Experimental: as §1

[10] = biological target: T10, anti-DLL3 trispecific protein with DLL3 binding domain 51B11
T10 construct: trispecific, one chain
Experimental: as §1

[11] = biological target: T11, anti-DLL3 trispecific protein with DLL3 binding domain 41D02
T11 construct: trispecific, one chain
Experimental: as §1

[12] = biological target: T12, anti-DLL3 trispecific protein with DLL3 binding domain 42B06
T12 construct: trispecific, one chain
Experimental: as §1

[13] = biological target: T13, anti-DLL3 trispecific protein with DLL3 binding domain 42F08
T13 construct: trispecific, one chain
Experimental: as §1

[14] = biological target: T14, anti-DLL3 trispecific protein with DLL3 binding domain 51D03
T14 construct: trispecific, one chain
Experimental: as §1

[15] = biological target: T15, anti-DLL3 trispecific protein with DLL3 binding domain 53B05
T15 construct: trispecific, one chain
Experimental: as §1

[16] = biological target: T16, anti-DLL3 trispecific protein with DLL3 binding domain 42G05
T16 construct: trispecific, one chain
Experimental: as §1

[17] = biological target: T17, anti-DLL3 trispecific protein with DLL3 binding domain 51E02
T17 construct: trispecific, one chain
Experimental: as §1

[18] = biological target: T18, anti-DLL3 trispecific protein with DLL3 binding domain 42C01
T18 construct: trispecific, one chain
Experimental: as §1

[19] = biological target: T19, anti-DLL3 trispecific protein with DLL3 binding domain 42A08
T19 construct: trispecific, one chain
Experimental: as §1

[20] = biological target: T20, anti-DLL3 trispecific protein with DLL3 binding domain 41E01
T20 construct: trispecific, one chain
Experimental: as §1

[21] = biological target: T21, anti-DLL3 trispecific protein with DLL3 binding domain 42F01
T21 construct: trispecific, one chain
Experimental: as §1

[22] = biological target: T22, anti-DLL3 trispecific protein with DLL3 binding domain 42C07
T22 construct: trispecific, one chain
Experimental: as §1

[23] = biological target: T23, anti-DLL3 trispecific protein with DLL3 binding domain 51F04
T23 construct: trispecific, one chain
Experimental: as §1

[24] = biological target: T24, anti-DLL3 trispecific protein with DLL3 binding domain 51E03
T24 construct: trispecific, one chain
Experimental: as §1

[25] = biological target: T25, anti-DLL3 trispecific protein with DLL3 binding domain 51F01
T25 construct: trispecific, one chain
Experimental: as §1

[26] = biological target: T26, anti-DLL3 trispecific protein with DLL3 binding domain 42F10
T26 construct: trispecific, one chain
Experimental: as §1

[27] = biological target: T27, anti-DLL3 trispecific protein with DLL3 binding domain 51G04
T27 construct: trispecific, one chain
Experimental: as §1

[28] = biological target: T28, anti-DLL3 trispecific protein with DLL3 binding domain 51H05
T28 construct: trispecific, one chain; also called 51H5
Experimental: as §1

T21 sequence (chain, as listed by the source): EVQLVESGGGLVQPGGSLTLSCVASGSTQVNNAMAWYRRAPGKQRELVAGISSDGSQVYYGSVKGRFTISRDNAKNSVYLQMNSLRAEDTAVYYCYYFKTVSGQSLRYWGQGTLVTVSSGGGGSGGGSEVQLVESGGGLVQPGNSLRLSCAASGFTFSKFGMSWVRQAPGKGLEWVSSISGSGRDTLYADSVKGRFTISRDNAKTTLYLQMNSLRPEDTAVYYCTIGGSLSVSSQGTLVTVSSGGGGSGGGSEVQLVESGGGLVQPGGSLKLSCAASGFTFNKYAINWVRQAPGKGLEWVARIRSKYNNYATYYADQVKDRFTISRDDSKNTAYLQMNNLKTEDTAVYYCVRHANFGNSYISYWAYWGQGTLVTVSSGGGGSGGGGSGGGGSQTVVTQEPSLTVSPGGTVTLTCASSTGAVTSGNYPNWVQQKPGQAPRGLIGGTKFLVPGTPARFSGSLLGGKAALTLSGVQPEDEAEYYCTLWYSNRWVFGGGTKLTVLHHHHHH
T26 sequence (chain, as listed by the source): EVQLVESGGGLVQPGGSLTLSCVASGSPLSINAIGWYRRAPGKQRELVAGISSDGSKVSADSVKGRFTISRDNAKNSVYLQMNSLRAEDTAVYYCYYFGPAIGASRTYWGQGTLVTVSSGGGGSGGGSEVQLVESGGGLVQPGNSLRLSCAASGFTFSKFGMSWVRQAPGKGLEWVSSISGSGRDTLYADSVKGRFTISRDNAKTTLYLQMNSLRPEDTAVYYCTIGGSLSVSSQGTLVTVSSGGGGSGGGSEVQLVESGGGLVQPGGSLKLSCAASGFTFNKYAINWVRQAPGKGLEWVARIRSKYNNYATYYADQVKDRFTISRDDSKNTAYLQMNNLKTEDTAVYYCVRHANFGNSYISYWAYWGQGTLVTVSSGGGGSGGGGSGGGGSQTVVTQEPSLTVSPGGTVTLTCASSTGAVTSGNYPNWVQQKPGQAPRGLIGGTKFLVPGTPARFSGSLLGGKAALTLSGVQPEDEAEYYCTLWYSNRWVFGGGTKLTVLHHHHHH
T28 sequence (chain, as listed by the source): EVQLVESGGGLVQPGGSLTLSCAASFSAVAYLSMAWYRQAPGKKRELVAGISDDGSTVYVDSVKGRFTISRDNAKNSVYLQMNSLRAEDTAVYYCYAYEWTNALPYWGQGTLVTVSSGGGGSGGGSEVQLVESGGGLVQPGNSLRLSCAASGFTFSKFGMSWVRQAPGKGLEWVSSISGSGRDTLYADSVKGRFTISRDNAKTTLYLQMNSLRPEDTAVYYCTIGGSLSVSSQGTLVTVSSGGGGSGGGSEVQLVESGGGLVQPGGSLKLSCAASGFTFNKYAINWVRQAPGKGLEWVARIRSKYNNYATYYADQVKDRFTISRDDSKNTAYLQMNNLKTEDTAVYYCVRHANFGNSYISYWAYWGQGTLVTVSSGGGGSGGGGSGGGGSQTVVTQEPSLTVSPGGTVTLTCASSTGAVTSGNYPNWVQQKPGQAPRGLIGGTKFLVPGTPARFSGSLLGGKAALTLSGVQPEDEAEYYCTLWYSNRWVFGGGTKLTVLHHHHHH
T8 sequence (chain, as listed by the source): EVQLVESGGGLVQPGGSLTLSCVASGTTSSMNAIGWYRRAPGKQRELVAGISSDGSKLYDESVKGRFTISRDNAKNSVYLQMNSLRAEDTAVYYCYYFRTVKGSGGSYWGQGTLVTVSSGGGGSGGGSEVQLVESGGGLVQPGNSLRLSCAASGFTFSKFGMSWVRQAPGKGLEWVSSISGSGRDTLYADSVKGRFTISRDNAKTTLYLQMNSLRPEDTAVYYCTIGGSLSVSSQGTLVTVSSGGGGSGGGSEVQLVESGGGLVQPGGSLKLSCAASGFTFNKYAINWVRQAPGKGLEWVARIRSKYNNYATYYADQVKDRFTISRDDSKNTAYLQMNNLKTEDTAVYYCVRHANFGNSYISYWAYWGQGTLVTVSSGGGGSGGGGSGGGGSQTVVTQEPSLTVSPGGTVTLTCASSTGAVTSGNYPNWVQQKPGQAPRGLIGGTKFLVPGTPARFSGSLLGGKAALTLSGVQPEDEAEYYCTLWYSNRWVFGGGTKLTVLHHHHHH
T13 sequence (chain, as listed by the source): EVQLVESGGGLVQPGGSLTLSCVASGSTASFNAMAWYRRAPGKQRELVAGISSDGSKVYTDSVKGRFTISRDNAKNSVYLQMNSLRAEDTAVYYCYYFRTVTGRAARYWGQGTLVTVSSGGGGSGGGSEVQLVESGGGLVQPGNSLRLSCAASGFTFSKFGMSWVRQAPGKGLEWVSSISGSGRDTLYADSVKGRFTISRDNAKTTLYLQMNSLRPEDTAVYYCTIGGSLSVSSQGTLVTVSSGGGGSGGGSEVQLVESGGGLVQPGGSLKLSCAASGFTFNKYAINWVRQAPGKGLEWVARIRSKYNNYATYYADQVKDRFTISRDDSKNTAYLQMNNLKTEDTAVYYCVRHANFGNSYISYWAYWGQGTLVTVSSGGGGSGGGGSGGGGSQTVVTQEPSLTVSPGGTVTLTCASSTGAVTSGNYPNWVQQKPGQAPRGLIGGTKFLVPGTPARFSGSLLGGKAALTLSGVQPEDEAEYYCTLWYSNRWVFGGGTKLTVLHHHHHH
T11 sequence (chain, as listed by the source): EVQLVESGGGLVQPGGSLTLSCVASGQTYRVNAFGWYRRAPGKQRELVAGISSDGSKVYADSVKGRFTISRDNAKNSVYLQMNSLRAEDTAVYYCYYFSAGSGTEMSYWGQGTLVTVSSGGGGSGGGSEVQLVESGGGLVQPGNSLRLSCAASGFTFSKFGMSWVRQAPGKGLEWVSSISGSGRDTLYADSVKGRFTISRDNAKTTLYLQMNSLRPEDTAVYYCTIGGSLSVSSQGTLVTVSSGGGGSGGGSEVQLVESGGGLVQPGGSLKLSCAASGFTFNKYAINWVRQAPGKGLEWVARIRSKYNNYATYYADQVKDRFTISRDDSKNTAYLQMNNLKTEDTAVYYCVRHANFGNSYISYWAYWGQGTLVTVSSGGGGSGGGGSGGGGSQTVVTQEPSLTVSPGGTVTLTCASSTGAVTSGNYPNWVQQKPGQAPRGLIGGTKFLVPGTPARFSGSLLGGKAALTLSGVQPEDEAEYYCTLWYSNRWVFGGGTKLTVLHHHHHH
T7 sequence (chain, as listed by the source): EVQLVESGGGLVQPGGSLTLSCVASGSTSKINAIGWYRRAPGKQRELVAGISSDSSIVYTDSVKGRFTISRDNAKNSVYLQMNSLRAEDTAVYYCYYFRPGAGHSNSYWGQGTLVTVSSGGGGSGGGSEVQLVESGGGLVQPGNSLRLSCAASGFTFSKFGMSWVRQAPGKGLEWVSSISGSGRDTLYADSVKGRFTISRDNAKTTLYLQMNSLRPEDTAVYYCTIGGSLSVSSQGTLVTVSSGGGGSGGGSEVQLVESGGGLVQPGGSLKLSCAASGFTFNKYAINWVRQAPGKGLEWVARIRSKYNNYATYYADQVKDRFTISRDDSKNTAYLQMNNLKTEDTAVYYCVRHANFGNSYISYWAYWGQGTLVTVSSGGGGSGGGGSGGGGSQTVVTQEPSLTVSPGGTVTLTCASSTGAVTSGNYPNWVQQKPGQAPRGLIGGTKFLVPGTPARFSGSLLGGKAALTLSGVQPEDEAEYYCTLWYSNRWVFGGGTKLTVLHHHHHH
T19 sequence (chain, as listed by the source): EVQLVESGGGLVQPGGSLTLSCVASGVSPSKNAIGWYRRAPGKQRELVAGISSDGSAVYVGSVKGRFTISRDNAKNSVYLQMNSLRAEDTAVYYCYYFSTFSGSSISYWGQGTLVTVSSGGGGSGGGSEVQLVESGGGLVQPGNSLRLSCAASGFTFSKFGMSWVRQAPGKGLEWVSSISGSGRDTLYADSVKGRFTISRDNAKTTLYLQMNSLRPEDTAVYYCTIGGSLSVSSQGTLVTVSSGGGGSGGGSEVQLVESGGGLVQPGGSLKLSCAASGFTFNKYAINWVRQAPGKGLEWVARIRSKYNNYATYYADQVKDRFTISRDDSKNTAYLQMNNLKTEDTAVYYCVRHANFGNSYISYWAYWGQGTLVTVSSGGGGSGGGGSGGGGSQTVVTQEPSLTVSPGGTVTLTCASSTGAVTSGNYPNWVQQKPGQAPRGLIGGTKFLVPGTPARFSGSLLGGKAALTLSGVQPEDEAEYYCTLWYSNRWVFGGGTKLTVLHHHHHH
T18 sequence (chain, as listed by the source): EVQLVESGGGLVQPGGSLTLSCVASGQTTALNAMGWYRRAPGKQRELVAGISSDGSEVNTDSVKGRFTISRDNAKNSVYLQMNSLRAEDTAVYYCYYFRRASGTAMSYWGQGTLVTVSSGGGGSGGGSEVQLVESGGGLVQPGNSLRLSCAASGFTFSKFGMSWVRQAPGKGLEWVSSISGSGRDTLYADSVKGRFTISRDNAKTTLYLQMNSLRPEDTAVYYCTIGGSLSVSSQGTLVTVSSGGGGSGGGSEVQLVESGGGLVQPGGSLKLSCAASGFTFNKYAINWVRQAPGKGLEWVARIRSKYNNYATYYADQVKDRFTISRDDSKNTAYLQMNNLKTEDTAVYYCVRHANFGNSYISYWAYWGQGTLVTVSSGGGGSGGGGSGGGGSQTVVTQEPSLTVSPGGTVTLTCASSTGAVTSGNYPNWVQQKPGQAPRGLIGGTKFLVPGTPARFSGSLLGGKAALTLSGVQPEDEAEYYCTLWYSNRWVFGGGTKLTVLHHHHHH

B1: biotinylated human DLL3 protein expressed as a human IgG1 fusion protein (Fc fusion, not shown: a dimerising Fc or GST)
chain: AGVFELQIHSFGPGPGPGAPRSPCSARLPCRLFFRVCLKPGLSEEAAESPCALGAALSARGPVYTEQPGAPAPDLPLPDGLLQVPFRDAWPGTFSFIIETWREELGDQIGGPAWSLLARVAGRRRLAAGGPWARDIQRAGAWELRFSYRARCEPPAVGTACTRLCRPRSAPSRCGPGLRPCAPLEDECEAPLVCRAGCSPEHGFCEQPGECRCLEGWTGPLCTVPVSTSSCLSPRGPSSATTGCLVPGPGPCDGNPCANGGSCSETPRSFECTCPRGFYGLRCEVSGVTCADGPCFNGGLCVGGADPDSAYICHCPPGFQGSNCEKRVDRCSLQPCRNGGLCLDLGHALRCRCRAGFAGPRCEHDLDDCAGRACANGGTCVEGGGAHRCSCALGFGGRDCRERADPCAARPCAHGGRCYAHFSGLVCACAPGYMGARCEFPVHPDGASALPAAPPGLRPGDPQRYL
modifications: biotinylated
Q: Which Kd [1] does the source give for B1 here?
A: 0.31 nM

Q: What about the Kd [2] of the same binder?
A: 0.88 nM

Q: What about the Kd [3] of the same binder?
A: 0.92 nM

Q: And the Kd [4]?
A: 1 nM

Q: And the Kd [5]?
A: 1.3 nM

Q: What about the Kd [6] of the same binder?
A: 1.3 nM

Q: What about the Kd [7] of the same binder?
A: 1.3 nM

Q: What about the Kd [8] of the same binder?
A: 1.5 nM

Q: What about the Kd [9] of the same binder?
A: 0.5 nM

Q: And the Kd [10]?
A: 2.4 nM

Q: And the Kd [11]?
A: 2.7 nM

Q: And the Kd [12]?
A: 3.2 nM

Q: What about the Kd [13] of the same binder?
A: 3.2 nM

Q: And the Kd [14]?
A: 3.3 nM

Q: What about the Kd [15] of the same binder?
A: 0.6 nM

Q: What about the Kd [16] of the same binder?
A: 3.4 nM

Q: And the Kd [17]?
A: 3.5 nM

Q: What about the Kd [18] of the same binder?
A: 3.6 nM

Q: And the Kd [19]?
A: 3.6 nM

Q: And the Kd [20]?
A: 5.3 nM

Q: And the Kd [21]?
A: 5.5 nM

Q: What about the Kd [22] of the same binder?
A: 6.4 nM

Q: And the Kd [23]?
A: 6.7 nM

Q: What about the Kd [24] of the same binder?
A: 7.2 nM

Q: And the Kd [25]?
A: 16 nM

Q: What about the Kd [26] of the same binder?
A: 17 nM

Q: And the Kd [27]?
A: 21 nM

Q: And the Kd [28]?
A: 0.67 nM

— patent publication US20240141072A1 (published 2024)
